In patent US6602687B1, “DNA encoding human ciliary neurotrophic factor and method for producing the protein encoded thereby” (Regeneron Pharmaceuticals, Inc., priority 1989, dated 2003):

How the values were obtained:
[1] = tested on: E18-19 rat hippocampal neurons; assay: GAD enzyme activity in hippocampal cultures; format: cell-based; conditions: recombinant rat CNTF 0.1 ng/ml; 8 days
Method: Hippocampi were dissected from E18-19 rat embryos of Sprague-Dawley rats, and collected in F10 medium. The tissues were minced, rinsed twice with F10 medium (Gibco) and trypsinized with 0.25% trypsin (Gibco) for 20 minutes at 37° C. Trypsin was inactivated by the addition of a serum-containing medium composed of minimal essential medium (MEM) supplemented with fetal calf serum (FCS, 10%), glutamine (2 mM), penicillin (25 U/ml) and streptomycin (25 ug/ml). Dissociated cells obtained by gentle trituration were collected and centrifuged at low speed (500 rpm) for 30 seconds. The centrifugation was repeated twice, and the cell pellets were then resuspended in serum-containing medium. The cells were then plated onto 6 mm wells or 35 mm dishes that were coated with polyornithine (10 ug/ml) and laminin (10 ug/ml). In most of the experiments, the cells were plated at a low density of approximately 71,000 cells/cm^2. […]
GAD enzyme activity was determined according to the method of Kimura and Kuriyama (1975, Jpn J. Pharm. 25:189-195) by measuring the release of ^14CO2 from L-[1-^14C] glutamic acid. […] The incubation was then continued for another 60 minutes. ^14CO2 released was trapped in Hyamine base solution, and was counted. […]

[2] = tested on: E8 chick ciliary ganglion neurons; assay: Survival of dissociated E8 chick ciliary ganglion neurons; format: cell-based; conditions: saturating levels of recombinant human CNTF; 48 hr
How it was run: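 In one protocol, dissociated E8 chick ciliary ganglion cells (2,000 per well, HEBM with 20% horse serum) were held 24 h at 37 °C, fixed, and surviving neurons counted by phase contrast. In another, trypsinized, pre-plating-enriched neurons on polyornithine-laminin (8,000-10,000 per dish, F14 with 5% horse serum) were scored as percentage process-bearing at 48 h, in triplicate.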

[3] = tested on: metrizamide gradient purified ventral spinal cord motorneurons; assay: CAT activity in metrizamide gradient-purified motorneurons; format: cell-based, rat; conditions: CNTF 10 ng/ml; purified motorneuron cultures
Method: Cultures were harvested by lysing the cells in a 20 mM Tris-HCl (pH 8.6) solution containing 0.1% Triton X-100. Two microliters of the cell lysate was removed and assayed for CAT activity according to the micro-Fonnum procedure (Fonnum, 1975, J. Neurochem. 24:407-409). The final substrate composition consisted of 0.2 mM [1-^14C] Acetyl-CoA (NEN, 54.4 mCi/mmol), 300 mM NaCl, 8 mM choline bromide, 20 mM EDTA, and 0.1 mM neostigmine in 50 mM NaH2PO4 (pH 7.4) buffer. At these enzyme and substrate concentrations, the enzymatic reaction was linear for 90-120 minutes. The specificity of the induction for CAT was tested by the addition of a specific inhibitor of CAT activity, N-hydroxyethyl-4-(1-napthylvinyl) pyridium (HNP), during the assay (White and Cavallito, 1970, J. Neurochem. 17:1579-1589).
The fractionation procedure (Dohrman et al., 1986, Dev. Biol. 118:209-221) was a modification of the method described by Schnaar and Schaffner (1981, J. Neurosci. 1:204-207). Metrizamide was dissolved in F12:MEM(1:1) medium, and a step gradient consisting of 3 ml 17% metrizamide, 3 ml 12% metrizamide and 3 ml 8% metrizamide was prepared. The following steps were all carried out at 4° C. The ventral horn cell suspension (2.5 ml) obtained as described previously was layered over the step gradient, the tube was centrifuged at 2500×g for 20 minutes using a swing-out rotor. […]

B1: CNTF: ciliary neurotrophic factor; recombinant rat CNTF in Sections 10, 15, 17, purified rat sciatic nerve CNTF in Section 11; see endpoint conditions (protein, UniProt P20294 1-200, looked up)
Ciliary neurotrophic factor: MAFAEQTPLTLHRRDLCSRSIWLARKIRSDLTALMESYVKHQGLNKNINLDSVDGVPVASTDRWSEMTEAERLQENLQAYRTFQGMLTKLLEDQRVHFTPTEGDFHQAIHTLMLQVSAFAYQLEELMVLLEQKIPENEADGMPATVGDGGLFEKKLWGLKVLQELSQWTVRSIHDLRVISSHQMGISALESHYGAKDKQM
[1]
  maximal increase in GAD enzyme activity: 3.8 fold
[2]
  neurons surviving and elaborating long neurites: 60-70%
[3]
  increase in CAT activity versus untreated cultures: 10 fold
